Measurements as given in patent publication US20050113284A1, “Drug for regenerating tissue and vessel and method therefor” (priority 2001, published 2005).
Blank lines part the entries; values can stand above or below the molecule they belong to.

Biological target: T1, MERMUC bait protein (Homo sapiens, UniProt Q8N307)
T1 construct: Bait-2 corresponds to a 123 amino acid portion of the C-terminus (bait-2); expressed in transfected cells; host or cells: yeast AH109 strain (pGBKT7 bait vector)
T1 sequence (Q8N307 587-709): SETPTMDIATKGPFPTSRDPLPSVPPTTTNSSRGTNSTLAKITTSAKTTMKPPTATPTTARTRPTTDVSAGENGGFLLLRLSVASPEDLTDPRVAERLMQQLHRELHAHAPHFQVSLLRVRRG
Assay: Yeast two-hybrid binding of c-Met prey deletion proteins to MERMUC bait-2
Conditions: yeast growth on SD/-Leu,-Trp,-His and SD/-Leu,-Trp,-Ade; human MERMUC bait-2
Protocol: The present invention was performed using the reported yeast two-hybrid system (Proc. Natl. Acad. Sci. USA., 1991, Vol. 88, p.9578-9582) based on conventional method and the experimental protocols appended to the reagents.
PCR was performed using DNA (clone No. 3-309) corresponding to the 91 amino acids (amino acids 993-1083 of SEQ ID NO: 4) of the C-terminal region of the human HGF receptor c-Met β chain that was identified in the previous Example to have the binding ability to the cytoplasmic region of human MERMUC as a template. Seven DNA fragments shown below corresponding to the C-terminal region of the c-Met β chain having various lengths, wherein various length of N-terminal or C-terminal amino acids are deleted from said 91 amino acids were prepared via a conventional method by PCR: • A. DNA corresponding to a region (amino acids 1003-1083 of SEQ ID NO: 4) that lacks the 10 N-terminal amino acids of the 91 amino acids of the C-terminal human c-Met β chain; • B. DNA corresponding to a region (amino acids 1013-1083 of SEQ ID NO: 4) that lacks the 20 N-terminal amino acids of the 91 amino acids of the C-terminal human c-Met β chain; • C. DNA corresponding to a region (amino acids 1023-1083 of SEQ ID NO: 4) that lacks the 30 N-terminal amino acids of the 91 amino acids of the C-terminal human c-Met β chain; • D. DNA corresponding to a region (amino acids 993-1073 of SEQ ID NO: 4) that lacks the C-terminal 10 amino acids of the 91 amino acids of the C-terminal human c-Met β chain; • E. DNA corresponding to a region (amino acids 993-1063 of SEQ ID NO: 4) that lacks the 20 C-terminal amino acids of the 91 amino acids of the C-terminal human c-Met β chain; • F. DNA corresponding to a region (amino acids 993-1053 of SEQ ID NO: 4) that lacks the 30 C-terminal amino acids of the 91 amino acids of the C-terminal human c-Met β chain; and • G. DNA corresponding to a region (amino acids 993-1043 of SEQ ID NO: 4) that lacks the 40 C-terminal amino acids of the 91 amino acids of the C-terminal human c-Met β chain.
Furthermore, the forward and reverse primers used for the PCR were designed to contain an EcoRI site and SalI site at their 5′ end, respectively. Each of the DNA fragments prepared by PCR were inserted into the EcoRI/SalI site of pADKT7 vector (a vector for a prey protein that contains a tryptophan biosynthesis gene as a marker; CLONTECH) in frame with GAL4-AD to prepare prey vectors wherein each of the 7 DNAs described above is inserted.
Each of the 7 prey vectors was cointroduced into yeast AH109 strain with the human MERMUC bait-2 vector prepared in Example 1.
The binding activity between the c-Met prey proteins derived from the 7 DNA fragments and the MERMUC bait protein was analyzed by the yeast two-hybrid system described in Example 1. Specifically, the binding activity was evaluated based on the growth of yeast transformed with the vector on 2 kinds of yeast minimum media, i.e., (1) SD/-Leu, -Trp, -His media and (2) SD/-Leu, -Trp, -Ade media.

binding activity with MERMUC bait protein: + (bound) (+ (bound))
B1: prey DNA F: c-Met prey protein, amino acids 993-1053 of SEQ ID NO: 4 (protein, listed as Homo sapiens)
chain: RRLLQPEYCPDPLYEVMLKCWHPKAEMRPSFSELVSRISAIFSTFIGEHYVHVNATYVNVK

binding activity with MERMUC bait protein: + (bound) (+ (bound))
B2: prey DNA E: c-Met prey protein, amino acids 993-1063 of SEQ ID NO: 4 (protein, listed as Homo sapiens)
chain: RRLLQPEYCPDPLYEVMLKCWHPKAEMRPSFSELVSRISAIFSTFIGEHYVHVNATYVNVKCVAPYPSLLS

More lines, now with the values behind:

B3: prey DNA D: c-Met prey protein, amino acids 993-1073 of SEQ ID NO: 4 (protein, listed as Homo sapiens)
chain: RRLLQPEYCPDPLYEVMLKCWHPKAEMRPSFSELVSRISAIFSTFIGEHYVHVNATYVNVKCVAPYPSLLSSEDNADDEVD
binding activity with MERMUC bait protein: + (bound) (+ (bound))

B4: prey DNA B: c-Met prey protein, amino acids 1013-1083 of SEQ ID NO: 4 (protein, listed as Homo sapiens)
chain: WHPKAEMRPSFSELVSRISAIFSTFIGEHYVHVNATYVNVKCVAPYPSLLSSEDNADDEVDTRPASFWETS
binding activity with MERMUC bait protein: + (bound) (+ (bound))

B5: prey DNA A: c-Met prey protein, amino acids 1003-1083 of SEQ ID NO: 4 (protein, listed as Homo sapiens)
chain: DPLYEVMLKCWHPKAEMRPSFSELVSRISAIFSTFIGEHYVHVNATYVNVKCVAPYPSLLSSEDNADDEVDTRPASFWETS
binding activity with MERMUC bait protein: + (bound) (+ (bound))

B6: prey DNA C: c-Met prey protein, amino acids 1023-1083 of SEQ ID NO: 4 (protein, listed as Homo sapiens)
chain: FSELVSRISAIFSTFIGEHYVHVNATYVNVKCVAPYPSLLSSEDNADDEVDTRPASFWETS
binding activity with MERMUC bait protein: − (no binding)
